Assay results reported in PMC10643903 (Journal of Innate Immunity, 2022).
Blank lines part the entries; values can stand above or below the binder they belong to.

How the values were obtained:
[1] = target: biotinylated AVI-tagged full-length human C6 (Homo sapiens, UniProt P13671, biotin on the AVI-tag (BirA ligase)); assay: BLI
dog C6 FIM1-2 fragment = target: T1, dog C6 FIM1-2 fragment (Canis lupus familiaris); assay: BLI
T1 chain: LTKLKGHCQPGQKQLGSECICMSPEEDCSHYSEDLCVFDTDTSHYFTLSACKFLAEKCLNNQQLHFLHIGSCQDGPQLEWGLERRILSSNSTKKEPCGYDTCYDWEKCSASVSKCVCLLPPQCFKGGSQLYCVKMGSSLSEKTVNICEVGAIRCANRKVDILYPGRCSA

[2] = target: pig (Sus scrofa) C6 FIM1-2 fragment (Sus scrofa, UniProt A0SEH0); assay: BLI
[3] = target: human C6 FIM1-2 fragment (residues 766–934) with an N-terminal 10xHis-tag (human, UniProt P13671); assay: BLI
[4] = target: Macaca C6 FIM1-2 fragment (Macaca fascicularis (entry of printed …, UniProt A0A2K5W3S5)); assay: BLI
[5] = target: C6∆FIM1-2 (1–762) with a C-terminal His-tag (human, UniProt P13671); assay: SEC
[6] = target: recombinant full-length human C6 with a C-terminal 10xHis-tag (human, UniProt P13671 22-934); assay: BLI
[7] = target: human C6 FIM1-2 fragment (residues 766–934) with an N-terminal 10xHis-tag (human, UniProt P13671 766-934); assay: BLI
Chain of human C6 FIM1-2 fragment (residues 766–934) with an N-terminal 10xHis-tag (human, UniProt P13671 766-934) (P13671 766-934): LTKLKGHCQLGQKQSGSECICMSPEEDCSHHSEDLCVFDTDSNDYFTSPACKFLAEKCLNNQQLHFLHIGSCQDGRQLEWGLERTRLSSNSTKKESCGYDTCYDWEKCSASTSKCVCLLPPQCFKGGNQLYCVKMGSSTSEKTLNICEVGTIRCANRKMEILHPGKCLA

Chain of C6∆FIM1-2 (1–762) with a C-terminal His-tag (P13671 22-762): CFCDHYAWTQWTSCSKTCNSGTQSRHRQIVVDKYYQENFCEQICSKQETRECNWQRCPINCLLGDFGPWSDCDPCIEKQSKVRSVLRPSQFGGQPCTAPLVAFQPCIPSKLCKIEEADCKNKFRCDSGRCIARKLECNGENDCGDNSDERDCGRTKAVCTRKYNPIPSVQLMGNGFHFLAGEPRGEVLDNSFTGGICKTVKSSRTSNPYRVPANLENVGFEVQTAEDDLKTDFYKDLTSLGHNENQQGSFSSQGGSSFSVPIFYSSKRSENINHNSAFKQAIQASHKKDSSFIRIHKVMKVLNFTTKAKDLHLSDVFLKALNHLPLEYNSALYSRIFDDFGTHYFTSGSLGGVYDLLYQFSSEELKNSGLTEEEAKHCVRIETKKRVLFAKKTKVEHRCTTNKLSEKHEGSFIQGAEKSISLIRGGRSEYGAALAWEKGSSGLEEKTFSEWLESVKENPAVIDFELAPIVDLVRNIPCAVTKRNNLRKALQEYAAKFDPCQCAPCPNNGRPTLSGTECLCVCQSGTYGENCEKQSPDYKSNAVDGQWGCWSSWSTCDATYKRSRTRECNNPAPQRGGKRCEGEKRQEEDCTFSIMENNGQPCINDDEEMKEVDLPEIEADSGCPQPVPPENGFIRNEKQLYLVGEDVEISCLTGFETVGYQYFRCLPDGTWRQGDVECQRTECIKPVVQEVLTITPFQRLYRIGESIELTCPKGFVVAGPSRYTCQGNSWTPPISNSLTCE
Chain of biotinylated AVI-tagged full-length human C6 (P13671 22-934): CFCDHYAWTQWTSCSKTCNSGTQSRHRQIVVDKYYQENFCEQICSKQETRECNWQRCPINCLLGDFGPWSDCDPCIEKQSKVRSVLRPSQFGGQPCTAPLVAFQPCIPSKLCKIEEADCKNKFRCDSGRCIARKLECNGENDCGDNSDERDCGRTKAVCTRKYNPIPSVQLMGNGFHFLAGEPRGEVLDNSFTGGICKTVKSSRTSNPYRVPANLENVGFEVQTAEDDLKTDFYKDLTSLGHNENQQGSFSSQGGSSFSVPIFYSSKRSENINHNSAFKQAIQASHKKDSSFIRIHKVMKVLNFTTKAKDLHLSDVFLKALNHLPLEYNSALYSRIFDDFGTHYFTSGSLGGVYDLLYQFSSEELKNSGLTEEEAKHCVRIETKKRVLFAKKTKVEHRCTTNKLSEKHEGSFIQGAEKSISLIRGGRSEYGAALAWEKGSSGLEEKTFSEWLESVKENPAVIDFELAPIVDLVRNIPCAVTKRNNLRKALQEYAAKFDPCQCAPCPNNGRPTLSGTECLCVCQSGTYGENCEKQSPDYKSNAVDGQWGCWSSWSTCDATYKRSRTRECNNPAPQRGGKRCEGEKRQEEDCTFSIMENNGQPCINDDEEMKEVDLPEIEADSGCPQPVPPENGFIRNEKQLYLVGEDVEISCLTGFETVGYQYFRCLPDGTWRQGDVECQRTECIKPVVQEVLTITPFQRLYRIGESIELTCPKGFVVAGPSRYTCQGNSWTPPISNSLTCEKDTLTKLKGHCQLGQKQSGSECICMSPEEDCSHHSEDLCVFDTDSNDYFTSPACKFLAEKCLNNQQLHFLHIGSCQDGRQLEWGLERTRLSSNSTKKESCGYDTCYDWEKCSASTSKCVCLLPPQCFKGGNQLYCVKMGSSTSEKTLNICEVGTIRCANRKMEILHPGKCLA
Chain of recombinant full-length human C6 with a C-terminal 10xHis-tag (P13671 22-934): as above
Chain of human C6 FIM1-2 fragment (residues 766–934) with an N-terminal 10xHis-tag (human, UniProt P13671) (P13671 766-934): as the sequence (P13671 766-934) above

Kd [1]: 0.3 nM | Kd (dog C6 FIM1-2 fragment): ~5 nM | Kd [2]: ~5 nM | Kd [3]: 2.8 nM | Kd [4]: ~5 nM
B1: CP010 Fab (Fab, V domains shown)
VH: EVQLVESDGGLVQPGGSLKLSCAASGFTFSDYYMAWVRQGPGKGLEWVATINYDGSSTYYRESVKGRFTISRDNAKNTLYLQMNSLRAEDTATYYCARPSTEALFAYWGHGTLVTVSS
VL: DVVLTQTPSTLSVTPGQPASISCRSSQSLLNDVGNTYLYWYLQKPGQSPQLLIYLVSDLGSGVPNRFSGSGSGTDFTLKISRVEAEDVGIYYCMQASHAPYTFGQGTNLEIK

binding result [5]: no binding
B2: CP010, fully humanized version of 7E5 with a human IgG4 S228P constant region (antibody, V domains shown)
VH: EVQLVESDGGLVQPGGSLKLSCAASGFTFSDYYMAWVRQGPGKGLEWVATINYDGSSTYYRESVKGRFTISRDNAKNTLYLQMNSLRAEDTATYYCARPSTEALFAYWGHGTLVTVSS
VL: DVVLTQTPSTLSVTPGQPASISCRSSQSLLNDVGNTYLYWYLQKPGQSPQLLIYLVSDLGSGVPNRFSGSGSGTDFTLKISRVEAEDVGIYYCMQASHAPYTFGQGTNLEIK

Kd [6]: 10 to 20 nM | Kd [7]: 5 nM
B3: human C5 C345c domain (residues 1528–1676) (domain or fragment, UniProt P01031 1528-1676, looked up)
chain: VEADCGQMQEELDLTISAETRKQTACKPEIAYAYKVSITSITVENVFVKYKATLLDIYKTGEAVAEKDSEITFIKKVTCTNAELVKGRQYLIMGKEALQIKYNFSFRYIYPLDSLTWIEYWPRDTTCSSCQAFLANLDEFAEDIFLNGC
